# Test results reported in patent US11780903B2, “Peptide suppressing binding of CTLA4 to B7 proteins, and use thereof” (TOAGOSEI CO., LTD., priority 2020, dated 2023).
# No end group written: not given here.
# Tests used:
# [1] = target: T1, binding of CTLA4 to B7-1 (Homo sapiens, UniProt P16410); experiment: Test for evaluating binding inhibitory properties between CTLA4 and B7-1 (BPS #72009 inhibitor screening assay kit, chemiluminescence); conditions: peptide concentration 5 μM and/or 10 μM as in Table 2; plate-coated CTLA4, biotin-labeled B7-1; n=2 wells; versus no peptide added
# T1 construct: purchased BPS Bioscience BPS #72009
# T1 sequence (P16410 36-161 limits assumed): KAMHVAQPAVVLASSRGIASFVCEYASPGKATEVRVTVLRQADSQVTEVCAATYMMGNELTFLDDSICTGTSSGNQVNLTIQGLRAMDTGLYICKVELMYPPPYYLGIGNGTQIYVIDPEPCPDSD
# Procedure: The binding inhibitory properties between CTLA4 and B7-1 were evaluated for the 6 kinds of sample peptides synthesized in the above-described Test Example 1.
# In this test, Test Examples 2-1 to 2-9 were set according to the kinds of sample peptide used and the peptide concentration as shown in Table 2 below. In addition, a peptide-free group was set as Test Example 2-10. The tests of the above-described 10 categories in total were carried out as follows. The numbers “1 to 10” shown in the “No.” column of Table 2 represent “Test Examples 2-1 to 2-10” in Test Example 2. In addition, the number (n) of test wells in each of the above-described examples was set to 2.
# In Test Example 2-1, the following kit currently available on the market was used. CTLA4 B7-1 (Biotinylated) inhibitor screening assay kit (manufactured by BPS Bioscience, BPS #72009)
# The operation for this test example was based on “ASSAY PROTOCOL” described in the data sheet of the above-described kit. A brief procedure is shown below.
# First, each well of a 96-well plate was coated with CTLA4. Specifically, a CTLA4 solution (2 μg/mL) was dispensed into each well of the 96-well plate, and the plate was incubated overnight at 4° C.
# Subsequently, the CTLA4 solution was removed, and each well was washed.
# Subsequently, blocking was performed. Specifically, a blocking buffer contained in the kit was dispensed into each well, and the plate was incubated for 1 hour at room temperature.
# Subsequently, a solution of the Sample 1 was dispensed into each well, and the plate was incubated for 1 hour at room temperature.
# Subsequently, a biotin-labeled B7-1 solution (1.25 ng/mL) was dispensed into each well of the 96-well plate, and the plate was incubated for 2 hours at room temperature.
# After the above-described incubation, the peptide solution was removed, and each well was washed. […]
# Subsequently, the blocking buffer was removed, a chemiluminescent reagent contained in the above-described kit was dispensed into each well, and the chemiluminescence intensity in each well was measured with a luminometer. […]
# [2] = target: T2, binding of CTLA4 to B7-2 (Homo sapiens, UniProt P16410); experiment: Test for evaluating binding inhibitory properties between CTLA4 and B7-2 (BPS #79658 inhibitor screening assay kit, chemiluminescence); conditions: peptide concentration 5 μM and/or 10 μM as in Table 2; plate-coated CTLA4, biotin-labeled B7-2; n=2 wells; versus no peptide added
# T2 construct: purchased BPS Bioscience BPS #79658
# T2 sequence (P16410 36-161 limits assumed): T1 sequence (P16410 36-161 limits assumed)
# Procedure: The binding inhibitory properties between CTLA4 and B7-2 were evaluated for the 6 kinds of sample peptides synthesized in the above-described Test Example 1.
# In this test, Test Examples 3-1 to 3-9 were set according to the kind of sample peptide used and the peptide concentration as shown in Table 2 mentioned above. In addition, a peptide-free group was set as Test Example 3-10. The tests of the above-described 10 categories in total were carried out as follows. The numbers “1 to 10” shown in the “No.” column of Table 2 represent “Test Examples 3-1 to 3-10” in Test Example 3. In addition, the number (n) of test wells in each of the above-described examples was set to 2.
# In Test Example 3-1, the following kit currently available on the market was used. CTLA4 B7-2 (Biotinylated) inhibitor screening assay kit (BPS #79658)
# The operation for this test example was based on “ASSAY PROTOCOL” described in the data sheet of the above-described kit.
# Test Example 3-1 was performed using the same materials and processes as those of Test Example 2-1 except that the above-described kit was used.
Sequence,"suppression of binding of CTLA4 to B7-1 (chemiluminescence intensity, FIG. 1) [1]","suppression of binding of CTLA4 to B7-2 (chemiluminescence intensity, FIG. 2) [2]"
MQIPQAPWPVVWAVLQLGWR (MQIPQAPWPVVWAVLQLGWR-NH2) [Sample 4],no action of suppressing the binding of CTLA4 to B7-1 was observed,–
KKRTLRKNDR KKR (KKRTLRKNDRKKR-NH2) [Sample 6],not suppressed,not suppressed
MQIPQAPWPVVWAVLQLGWRMQIPQAPWRPVVWAVLQLGW [Sample 5],no action of suppressing the binding of CTLA4 to B7-1 was observed,–
